Test results as given in PMC5372524, “Structural Basis of Native CXCL7 Monomer Binding to CXCR2 Receptor N-Domain and Glycosaminoglycan Heparin” (International Journal of Molecular Sciences, 2017).
Values joined by “and” are separate entries in the source; they are usually repeats but may differ in a detail not shown here. Identical values can stand only once.

Biological target: the molecule itself
Assay: relative peak intensities in 2D HSQC NMR spectra; monomer/dimer/tetramer levels of CXCL7 as a function of buffer, temperature, pH and concentration (Table S1)

B1: CXCL7 (NAP-2, neutrophil-activating peptide 2), wild type (natural protein, UniProt P02775 59-128, looked up)
chain: AELRCMCIKTTSGIHPKNIQSLEVIGKGTHCNQVEVIATLKDGRKICLDPDAPRIKKIVQKKLAGDESAD
notes: Chemokine CXCL7, also known as NAP-2; 15N-labelled for the HSQC titrations; Exists as monomer, dimer and tetramer depending on pH and concentration; also called WT CXCL7; native CXCL7 monomer; source: Escherichia coli (LB or 15N/13C enriched minimal medium), purified (nickel column, reverse phase HPLC), lyophilized
  stoichiometry N: 4 and 2
